Reference: the Human Domainome abundance scans (Beltran et al. 2025)

B1: Death-inducer obliterator 1, residues 263 to 321; numbered along this chain, Q9BTC0 (parent)
chain: GYDPNALYCICRQPHNNRFMICCDRCEEWFHGDCVGISEARGRLLERNGEDYICPNCTI

Variants of: B1
Experiment: abundance fitness (aPCA) (normalised: wild type 0, dead -1); higher = more abundant; growth selection in yeast, the domain comes from the species named
Conditions: Homo sapiens

Abundance fitness of substitutions, site by site:
H31: C -0.282 | A -0.636
C23: V -1.08 | R -0.792 | Q -0.821 | H -1 | S -0.594 | E -0.966 | M -1.26 | K -0.408 | Y -1.17 | L -1.03 | P -0.296 | W -0.942 | G -0.864 | D -0.532 | T -0.918
C26: E -0.632 | L -1.03 | H -0.672 | M -0.926 | Q -0.985 | T -0.782 | W -0.416 | Y -0.794 | K -0.863 | I -0.578 | F -1.06 | G -0.72 | A -0.411 | D -0.808 | R -1.02 | P -0.599
M20: Y -0.304
I21: K -0.04 | W -0.582 | F -0.243 | D -0.692 | H -0.4 | Y 0.036 | A -0.144 | L -0.051 | G -0.575 | R -0.156 | T -0.177 | Q -0.164 | E -0.494 | V 0.132 | M -0.104
F30: S -0.266 | I -0.289 | E -0.954 | T -0.38 | K -0.349 | R -0.306 | V -0.327 | C -0.08 | W -0.325 | H 0.004 | L -0.006 | Y -0.041 | P -0.711 | N -0.013 | M 0.013 | Q -0.471 | G -0.269 | D -0.749 | A -0.283
D24: M 0.073 | K 0.192 | N 0.196 | S -0.092 | T -0.032 | R 0.138 | G 0.166 | C 0.048 | Y -0.073 | P 0.082 | V 0.258 | I -0.124 | E 0.026 | W -0.227 | L -0.176 | A 0.139
E28: Q -0.198 | W -0.019 | Y -0.122 | S -0.106 | T 0.065 | F -0.028 | M -0.056 | C -0.032 | L -0.055 | V 0.015 | A -0.153 | P -0.742 | I -0.235 | D 0.125 | N -0.231 | K 0.045 | H -0.075
W29: Y 0.064 | I 0.225 | L 0.215 | H -0.02 | T 0.242 | D 0.025 | K 0.2 | R 0.173 | N 0.224 | V 0.252 | M 0.176 | P 0.05 | G -0.02 | A 0.161 | E 0.277 | C 0.045 | S 0.17
R25: K 0.118 | H -0.032 | L -0.057 | P -0.052 | F -0.068 | E 0.163 | W -0.261 | M -0.023 | A 0.125 | N 0.101 | D -0.027 | C -0.191 | Q 0.124 | S -0.019 | G -0.085 | I -0.197 | V 0.063 | T 0.039
E27: S -0.033 | W -0.09 | Q -0.066 | I -0.158 | K 0.237 | R -0.071 | L -0.107 | Y 0.015 | G -0.074 | C -0.237 | D 0.012 | T -0.007 | V -0.193 | P -0.004
C22: F 0.137 | A 0.116 | G 0.073 | T 0.185 | I 0.07 | N 0.029 | R 0.11 | W 0.08 | P 0.02 | E 0.023 | K 0.058 | Y 0.12 | M 0.102 | Q 0.075 | V 0.269 | H 0.056 | S 0.023
